Reference: US20150376286A1 (Amgen, published 2015)

T1: cynomolgus CGRP receptor (cynoCRLR + cynoRAMP1) (cynomolgus monkey)
T1 chain 1: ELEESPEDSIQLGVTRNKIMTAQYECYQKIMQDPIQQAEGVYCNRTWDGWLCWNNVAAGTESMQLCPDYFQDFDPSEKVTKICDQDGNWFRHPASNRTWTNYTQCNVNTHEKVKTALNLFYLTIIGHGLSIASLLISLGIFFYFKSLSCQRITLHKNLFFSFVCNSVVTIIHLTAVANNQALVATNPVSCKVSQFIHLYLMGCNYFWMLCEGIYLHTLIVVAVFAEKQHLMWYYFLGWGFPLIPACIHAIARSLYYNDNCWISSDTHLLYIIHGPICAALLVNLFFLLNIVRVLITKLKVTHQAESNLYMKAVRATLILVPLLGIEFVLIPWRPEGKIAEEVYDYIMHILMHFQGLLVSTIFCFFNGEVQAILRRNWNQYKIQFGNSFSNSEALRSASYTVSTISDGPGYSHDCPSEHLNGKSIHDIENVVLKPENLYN
T1 chain 2: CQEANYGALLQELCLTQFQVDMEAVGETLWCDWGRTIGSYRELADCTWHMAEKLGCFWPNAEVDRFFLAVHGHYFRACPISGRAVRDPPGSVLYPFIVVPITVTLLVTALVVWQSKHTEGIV

T2: chimeric CGRP receptor: CRLR wt + RAMP1 chimera #3 (R67 to E78) (human; human/rat chimera, UniProt Q16602 23-461; O60894 27-148)
T2 construct: also called CRLR wt+RAMP1 R67-E78
T2 chain 1: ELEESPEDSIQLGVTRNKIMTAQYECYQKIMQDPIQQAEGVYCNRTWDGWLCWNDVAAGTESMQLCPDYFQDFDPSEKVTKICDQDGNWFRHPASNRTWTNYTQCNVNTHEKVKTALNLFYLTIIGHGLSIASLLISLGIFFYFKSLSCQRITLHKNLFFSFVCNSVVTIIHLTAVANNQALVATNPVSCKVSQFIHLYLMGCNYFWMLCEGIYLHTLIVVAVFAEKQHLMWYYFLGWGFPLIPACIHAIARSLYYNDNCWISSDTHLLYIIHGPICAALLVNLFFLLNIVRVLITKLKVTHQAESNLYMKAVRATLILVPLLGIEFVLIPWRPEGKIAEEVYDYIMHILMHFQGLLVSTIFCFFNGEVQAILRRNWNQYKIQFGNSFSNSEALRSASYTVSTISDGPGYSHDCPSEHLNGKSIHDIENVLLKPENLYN
T2 chain 2: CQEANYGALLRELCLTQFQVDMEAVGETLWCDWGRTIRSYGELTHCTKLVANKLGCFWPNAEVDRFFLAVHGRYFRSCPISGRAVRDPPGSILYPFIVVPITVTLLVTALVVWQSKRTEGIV

T3: chimeric CGRP receptor: CRLR wt + RAMP1 chimera #2 (Q43 to E53) (human; human/rat chimera, UniProt Q16602 23-461; O60894 27-148)
T3 construct: also called CRLR wt+RAMP1 Q43-E53
T3 chain 1: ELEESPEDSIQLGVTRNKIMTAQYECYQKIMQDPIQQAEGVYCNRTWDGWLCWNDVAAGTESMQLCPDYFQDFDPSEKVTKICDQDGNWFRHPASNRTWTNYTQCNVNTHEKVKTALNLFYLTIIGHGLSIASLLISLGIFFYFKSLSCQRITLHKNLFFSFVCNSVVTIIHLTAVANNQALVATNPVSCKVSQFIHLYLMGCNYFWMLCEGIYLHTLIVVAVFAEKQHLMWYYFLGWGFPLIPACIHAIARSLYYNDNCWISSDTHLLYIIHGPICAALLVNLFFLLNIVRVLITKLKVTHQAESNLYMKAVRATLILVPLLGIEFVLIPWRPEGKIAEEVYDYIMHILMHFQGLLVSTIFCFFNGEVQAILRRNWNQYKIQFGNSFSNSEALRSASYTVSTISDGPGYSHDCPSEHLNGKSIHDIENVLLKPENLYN
T3 chain 2: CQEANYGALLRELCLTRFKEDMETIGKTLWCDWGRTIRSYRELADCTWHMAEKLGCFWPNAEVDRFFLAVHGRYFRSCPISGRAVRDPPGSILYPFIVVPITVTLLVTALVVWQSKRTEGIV


How the values were obtained:
[1] = target: T4, chimeric CGRP receptor: CRLR chimera #1 (L24 to Q33) + RAMP1 wt (human/rat chimera; human, UniProt Q16602 1-461; O60894 27-148); experiment: FACS on transfected 293-6E cells
T4 construct: also called CRLR L24-Q33+RAMP wt
Protocol: (§1) Cells were harvested after 72 hr, washed with PBS+0.5% BSA, and counted. Each transfected cell line was resuspended at a dilution of 5×10⁵ cells per 100 μl PBS/BSA. 100 μl of cell suspension was aliquot per well in a 96-well round-bottom plate (Falcon). The cells were pelleted at 1200 rpm for 5 min. […] Cells were incubated on ice for 1 hr. and then washed twice with PBS/BSA. […] Cells were incubated on ice in the dark for 1 hr. and then washed twice with PBS/BSA. Cells were resuspended in 200 μl PBS/BSA and analyzed using a FACS Calibur.

[2] = target: T5, human CGRP receptor (CRLR + RAMP1) (human, UniProt Q16602 23-461; O60894 27-148); experiment: immunohistochemistry, CGRP/CHO cells, staining intensity (visual score)
T5 construct: also called hCGRP R; huCGRP R
Protocol: (§2) 2-4×10⁶ cells were injected per colla plug (Integra LifeSciences Co., Plainsboro, N.J.). Colla plugs were embedded in OCT medium (Sakura Finetek Inc., Torrance, Calif.), frozen at −20° C. and cut into 20 μm sections using a cryostat. Sections were fixed with 4% paraformaldehyde for 1 hour at room temperature (RT) and subsequently washed in phosphate-buffered saline (PBS). Endogenous peroxidase was blocked with 3% H₂O₂/PBS for 15 min and sections were incubated in blocking solution (PBS with 3% normal goat serum (Vector Labs, Burlingame, Calif.) and 0.3% triton X-100) for 1 hour. […] Sections were cleared with xylene and cover slipped with Permount (Fisher Chemicals, Fair Lawn, N.J.). Immunoreactivity was analyzed using a Nikon E-800 microscope and associated software (Nikon, Melville, N.Y.).

[3] = target: T6, human adrenomedullin receptor 2 (hCRLR + hRAMP3) (human, UniProt O60896 24-148); experiment: immunohistochemistry, CHO cells expressing recombinant human adrenomedullin receptor 2 (CRLR+RAMP3), staining intensity (visual score); the text says no staining was observed
T6 construct: whole, on cells; CHO cell line bought from EuroScreen; also called hAM2; AM2
T6 sequence (O60896 24-148): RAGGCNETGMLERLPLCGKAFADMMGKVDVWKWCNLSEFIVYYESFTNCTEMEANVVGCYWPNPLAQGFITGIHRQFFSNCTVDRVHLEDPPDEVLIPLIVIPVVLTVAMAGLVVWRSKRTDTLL
Protocol: as §2

[4] = target: T7, human adrenomedullin receptor 1 (hCRLR + hRAMP2) (human, UniProt O60895 43-175); experiment: cell-based or functional assay
[5] = target: T1, cynomolgus CGRP receptor (cynoCRLR + …); experiment: cell-based or functional assay
[6] = target: T8, human amylin AMY1 receptor (hCTR + hRAMP1) (human, UniProt P30988 25-474); experiment: cell-based or functional assay
T8 sequence (P30988 25-474): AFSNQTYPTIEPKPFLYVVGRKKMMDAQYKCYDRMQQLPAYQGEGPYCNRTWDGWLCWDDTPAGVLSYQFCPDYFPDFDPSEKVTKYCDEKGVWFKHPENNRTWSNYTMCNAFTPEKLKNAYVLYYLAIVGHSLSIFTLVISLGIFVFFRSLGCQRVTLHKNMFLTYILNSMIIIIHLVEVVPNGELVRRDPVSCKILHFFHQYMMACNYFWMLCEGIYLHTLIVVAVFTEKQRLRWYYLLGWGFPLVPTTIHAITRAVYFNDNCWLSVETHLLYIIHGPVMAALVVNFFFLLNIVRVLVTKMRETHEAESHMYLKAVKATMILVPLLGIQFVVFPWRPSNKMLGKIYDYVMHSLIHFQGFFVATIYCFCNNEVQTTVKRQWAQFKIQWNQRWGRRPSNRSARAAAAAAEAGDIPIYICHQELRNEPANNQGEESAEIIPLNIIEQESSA

[7] = target: T6, human adrenomedullin receptor 2 (hCRLR …); experiment: cell-based or functional assay
[8] = target: T7, human adrenomedullin receptor 1 (hCRLR …); experiment: immunohistochemistry, HEK cells expressing recombinant human adrenomedullin receptor 1 (CRLR+RAMP2), staining intensity (visual score); the text says no staining was observed
Protocol: as §2

[9] = target: T8, human amylin AMY1 receptor (hCTR + …); experiment: immunohistochemistry, MCF-7 cells endogenously expressing amylin receptors, staining intensity (visual score); the text says no staining was observed
Protocol: as §2

[10] = target: T2, chimeric CGRP receptor: CRLR wt + RAMP1 …; experiment: FACS on transfected 293-6E cells
Protocol: as §1

[11] = target: T5, human CGRP receptor (CRLR + RAMP1); experiment: FACS on transfected 293-6E cells
Protocol: as §1

[12] = target: T3, chimeric CGRP receptor: CRLR wt + RAMP1 …; experiment: FACS on transfected 293-6E cells
Protocol: as §1

Binder	binding result [1]	binding result [2]	binding result [3]	cAMP assay IC50 [4]	cAMP assay IC50 [5]	cAMP assay IC50 [6]	cAMP assay IC50 [7]	binding result [8]	binding result [9]	binding result [10]	binding result [11]	binding result [12]
32H7 (antibody, human IgG2, kappa, V domains shown, also called 32H7.1G) VH: QVQLVESGGGVVQPGRSLRLSCAASGFTFSSYGMHWVRQAPGKGLEWVAVIWYDGSNKYYADSVKGRFIISRDKSKNTLYLQMNSLRAEDTAVYYCARAGGIAAAGLYYYYGMDVWGQGTTVTVSS VL: EIVLTQSPGTLSLSPGERATLSCRASQSVSSGYLTWYQQKPGQAPRLLIYGASSRATGIPDRFSGSGSGTDFTLTISRLEPEDFAVYYCQQYGNSLCRFGQGTKLEIKR	binds	binds	no binding	> 1000 nM	1.93 nM	> 1000 nM	> 1000 nM	no binding	no binding	–	–	–
33B5 (antibody, V domains shown) VH: not shown VL: DIQMTQSPSSLSASVGDRVTITCRASQGIRNDLGWYQQKPGKAPKRLIYVASSLQSGVPSRFSGSGSGTEFTLTISSLQPEDFATYYCLQYNTYPLTFGGGTKVEIK	binds	–	–	–	–	–	–	–	–	binds	binds	binds
